Measured values as given in patent US20160375112A1 (priority 2013, published 2016).

Conditions: human, in vivo

botulinum toxin
botulinum toxin-related reactions (hypersensitivity, after injection and before ALDARA): No botulinum toxin-related reactions
